Reference: patent US20060217891A1
Ends that are not written are not given here.

Target: Fas (Receptor) on the Fas-expressing human ovarian cancer cell line NOS4 (human) (UniProt P25445)
Experiment: cell-based or functional assay

Fas (Receptor) on the Fas-expressing human ovarian cancer cell line NOS4 (human), sequence (P25445 26-335): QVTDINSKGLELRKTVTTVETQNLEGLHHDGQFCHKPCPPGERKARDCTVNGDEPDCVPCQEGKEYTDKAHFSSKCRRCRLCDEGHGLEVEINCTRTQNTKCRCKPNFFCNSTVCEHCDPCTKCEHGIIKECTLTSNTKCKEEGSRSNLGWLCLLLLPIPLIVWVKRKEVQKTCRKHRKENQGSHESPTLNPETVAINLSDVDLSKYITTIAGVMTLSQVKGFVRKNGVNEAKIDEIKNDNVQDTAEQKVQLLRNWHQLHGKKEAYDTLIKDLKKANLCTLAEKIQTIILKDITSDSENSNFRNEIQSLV

Binder | apoptosis induction potential relative to the monomer FRP-2 | apoptosis of NOS4 cells, same method as Test Example 1, at 5 mg/ml as printed | Apoptosis induction Activity (%) of NOS4 cells at 0.01 µg/ml | Apoptosis induction Activity (%) of NOS4 cells at 0.03 µg/ml | Apoptosis induction Activity (%) of NOS4 cells at 0.1 µg/ml | Apoptosis induction Activity (%) of NOS4 cells at 0.3 µg/ml | Apoptosis induction Activity (%) of NOS4 cells at 1 µg/ml
EPPMTFISIHTMCH (peptide, part only, also: tetramer: each copy bound to one of four branches of a lysine polymer (MAP)) [Fas complementary peptide tetramer [(FRP-2)4-MAP]] | 30 times | 50% | – | – | – | – | –
WEWT (peptide, part only, also: tetramer: each copy bound to one of 4 branches of MAP-8, remaining four amino groups of MAP-8 protected) [(FLLP-1)4-MAP8 (four WEWT peptides bound to MAP-8)] | – | – | 7% | 15% | 48% | 67% | 78%
